Assay results taken from patent US20130123171A1 (INDIANA UNIVERSITY RESEARCH AND TECHNOLOGY CORPORA, published 2013).
Several values for one entry are separate records, joined by “and”; a condition that tells them apart may be missing. Identical values can stand only once. Positions of bridges follow the written chain, without caps; N, C: chain ends. Chains are numbered I, II in the order given. No end group written: not given here.

How the values were obtained:
[1] = molecular target: insulin receptor, B subtype (UniProt P06213); assay: cell-based or functional assay
[2] = molecular target: insulin receptor, A subtype (UniProt P06213); assay: cell-based or functional assay
[3] = molecular target: T1, human insulin receptor (human, UniProt P06213 28-1382); assay: SPA competition vs 125I-insulin, human IR membranes (Example 3)
T1 construct: whole, on cells
Procedure: (§1) Non-specifically bound (NSB) radioactivity was measured in the wells with a four-fold concentration excess of “cold” native ligand than the highest concentration in test samples. Total bound radioactivity was detected in the wells with no competitor. Percent specific binding was calculated as following: % Specific Binding=(Bound-NSB/Total bound-NSB)×100.

[4] = molecular target: human insulin receptor (human) (UniProt P06213); assay: cell-based or functional assay
[5] = molecular target: T2, human IGF-1 receptor (human, UniProt P08069 31-1367); assay: SPA competition vs 125I-IGF-1, human IGF-1R membranes (Example 3)
T2 construct: whole, on cells
Procedure: as §1

[6] = molecular target: T2, human IGF-1 receptor; assay: cell-based or functional assay
[7] = molecular target: T1, human insulin receptor; assay: cell-based or functional assay
[8] = molecular target: human insulin receptor (human) (UniProt P06213); assay: SPA competition vs 125I-insulin, human IR membranes (Example 3)
[9] = molecular target: T1, human insulin receptor; assay: in vitro insulin receptor binding assay after 95 hr in 20% plasma/PBS at 37 C, relative to native insulin
[10] = molecular target: T1, human insulin receptor; assay: in vitro insulin receptor binding assay after 0 hr in 20% plasma/PBS at 37 C, relative to native insulin
[11] = molecular target: T1, human insulin receptor; assay: in vitro insulin receptor binding assay after 9 hr in 20% plasma/PBS at 37 C, relative to native insulin

Molecule	IC50 [3]	% IGF-1 (in test) [5]	% native IGF-1 activity (0.55 nM) [5]	IC50 [5]	also measured
B^1Aoa2(H5, H10,Y16,L17)25a: A^1(pNH2-F19, N18, N21) (peptide)	–	–	–	–	% (of insulin), in vitro phosphorylation assay, IR-B [1]: 48%; % (of insulin), in vitro phosphorylation assay, IR-A [2]: 81%
B^1PEG-Aoa2(H5, H10,Y16,L17)25a: A^1(pNH2-F19, N18, N21), N-terminal 20 kDa PEG, no dipeptide at A19	–	–	–	–	% (of insulin), in vitro phosphorylation assay, IR-B [1]: 6.5%; % (of insulin), in vitro phosphorylation assay, IR-A [2]: 18%
B^1PEGAoa2(H5, H10,Y16,L17)25a: A^1(dLys(rE-C14),Nleu-aF19, N18, N21) (peptide)	–	–	–	–	% (of insulin), in vitro phosphorylation assay, IR-B, prodrug after 78 h in PBS at 37 C [1]: 6.3%; % (of insulin), in vitro phosphorylation assay, IR-B, prodrug at 0 h [1]: 1.2%; % (of insulin), in vitro phosphorylation assay, IR-A, prodrug after 78 h in PBS at 37 C [2]: 8.3%; % (of insulin), in vitro phosphorylation assay, IR-A, prodrug at 0 h [2]: 1.1%
IGF1 A:B(Y^B16L^B17)(p-NH2-F)^A19amide (peptide)	1.08 nM	–	–	–	% of Insulin Activity [3]: 22%
IGF1(Y^B16L^B17)(AlaPro)^A-1,0 (peptide)	1.93 nM	–	–	–	% of Insulin Activity [3]: 37.1%
IGF-1 A (H8 A9 N21):B (H5D10Y16L17 A22) DPI A-COOH (peptide)	–	–	–	–	% Insulin, total phosphorylation, Insulin Receptor [4]: 360% and 614%
IGF-1 A (H8 A9 N21):B (H5D10Y16L17) DPI A-COOH (peptide)	0.05 nM and 0.09 nM	12.9%	13.6%	4.03 nM	% IGF, total phosphorylation, IGF-1 Receptor [6]: 181%; % Insulin, total phosphorylation, Insulin Receptor [7]: 840% and 1080%; % insulin (in test) [3]: 1580% and 1670%
IGF-1 A:B (H5D10Y16L17) (S═O)DPI (peptide)	–	–	–	–	% insulin (in test) [8]: 316%; IC50 [8]: 0.25 nM
IGF-1 A:B (H5D10Y16L17) DPI (peptide)	–	–	–	–	% insulin (in test) [8]: 479%; IC50 [8]: 0.16 nM
IGF-1 A:B(D10Y16L17) DPI A-COOH (peptide)	0.26 nM and 0.2 nM and 0.42 nM	7.7%	8.1%	6.79 nM	% IGF, total phosphorylation, IGF-1 Receptor [6]: 112%; % Insulin, total phosphorylation, Insulin Receptor [7]: 1580%; % insulin (in test) [3]: 301% and 380% and 174%; % native insulin activity (0.6 nM) [3]: 231% and 300% and 144%
IGF-1 A:B(E10 Y16L17)-E31E32B-COOH (peptide)	–	3%	3.1%	17.5 nM	% Insulin, total phosphorylation, Insulin Receptor [7]: 18.1% and 31.7%
In A:IGF-1 B(YL) (peptide)	82.6 nM and 107 nM	–	–	–	% insulin (in test) [3]: 0.9% and 0.7%; % native insulin activity (0.6 nM) [3]: 0.7% and 0.6%
MIU-30a: B^1(Y16,L17,Y25)29a: A^1(dLys(Ac),Sar-aF19) (peptide)	–	–	–	–	% Activity of Insulin [9]: 115%; % Activity of Insulin, in vitro phosphorylation assay, after 1 hr in 20% plasma [7]: 23%; % Activity of Insulin, in vitro phosphorylation assay, after 3 hr in 20% plasma [7]: 26.8%; % Activity of Insulin, in vitro phosphorylation assay, after 6 hr in 20% plasma [7]: 32.5%; % Activity of Insulin, in vitro phosphorylation assay, after 9 hr in 20% plasma [7]: 41.1%; % Activity of Insulin, in vitro phosphorylation assay, after 10.5 hr in 20% plasma [7]: 43.2%; % Activity of Insulin [10]: 34.4%; % Activity of Insulin [11]: 100%
IGF-1 A:B(E10Y16L17) (disulfide I:7-II:6 (inferred); not fully specified (bridges); cysteine pairing not given here, A chain, then B chain) A chain: GIVDECCFRSCDLRRLEMYCA-NH2 B chain: GPETLCGAELVDALYLVCGDRGFYFNKPT-NH2	0.66 nM and 0.51 nM	–	–	7.85 nM and 12.2 nM	–
IGF-1 A:IGF-1 B(1-8)-In (9-17)-IGF-1 B (18-30) (disulfide I:7-II:6 (inferred); not fully specified (bridges); ends not checked; also: C-terminal amide (chain not given here), my derivation) chain 1: GIVDECCFRSCDLRRLEMYCA-NH2 chain 2: GPETLCGSHLVEALYLVCGDRGFYFNKPT-NH2	1.59 nM	0.3%	0.4%	131 nM	% insulin (in test) [3]: 19.1%; % native insulin activity (0.6 nM) [3]: 37.7%
IGF-1 A:In (1-17)-IGF-1 B (18-30) (disulfide I:7-II:7 (inferred); not fully specified (bridges); ends not checked; also: C-terminal amide (chain not given here), my derivation) chain 1: GIVDECCFRSCDLRRLEMYCA-NH2 chain 2: FVNQHLCGSHLVEALYLVCGDRGFYFNKPT-NH2	2.77 nM and 2.67 nM and 2.48 nM	0.9%	0.9%	62.5 nM	–
IGF-1 A:In B(1-5)-IGF-1 B(YL) (6-30) (disulfide I:6-I:11, I:20-II:19, I:7-II:7; also: disulfides as in insulin, my derivation) A chain: GIVDECCFRSCDLRRLEMYCA-NH2 B chain: FVNQHLCGAELVDALYLVCGDRGFYFNKPT-NH2	–	3.6%	2%	27.5 nM	–
IGF-1 A (H8 A9 N21):B (H5D10Y16L17 A22) DPI A-COOH (ends and bridges not checked) chain 1: GIVDECCHASCDLRRLEMYCN-OH chain 2: GPEHLCGADLVDALYLVCGDAGFY-NH2	–	2.3%	2.4%	22.8 nM	–
IGF1 (Y^B16L^B17) (disulfide I:7-II:6 (inferred); not fully specified (C-terminus, bridges); cysteine pairing not given here, A chain, then B chain, two chain heteroduplex; also called IGF1(YL)^B16B17 analog; IGF1 A:B(Y^B16L^B17)) A chain: GIVDECCFRSCDLRRLEMYCA B chain: GPETLCGAELVDALYLVCGDRGFYFNKPT	0.51 nM	–	–	–	–
IGF-1 A:B (disulfide I:7-II:6 (inferred); not fully specified (bridges); ends not checked; also: C-terminal amide (chain not given here), Two chain heteroduplex of the native IGF-1 A and B chains) chain 1: GIVDECCFRSCDLRRLEMYCA-NH2 chain 2: GPETLCGAELVDALQFVCGDRGFYFNKPT-NH2	10.4 nM	–	–	–	% insulin (in test) [3]: 5.8%; % native insulin activity (0.6 nM) [3]: 5.8%
IGF-1 A:B (H5D10Y16L17) DPI (disulfide I:7-II:6 (inferred); not fully specified (bridges); ends not checked; also: C-terminal amide (chain not given here)) chain 1: GIVDECCFRSCDLRRLEMYCA-NH2 chain 2: GPEHLCGADLVDALYLVCGDRGFY-NH2	–	11.2%	11.8%	4.66 nM	–
IGF-1 A:B (E10Y16L17) DPI (disulfide I:7-II:6 (inferred); not fully specified (bridges); cysteine pairing not given here, A chain, then B chain; DPI as in m25) A chain: GIVDECCFRSCDLRRLEMYCA-NH2 B chain: GPETLCGAELVDALYLVCGDRGFY-NH2	–	3.3%	2.4%	22.9 nM	–
